We go through one protein from publication PMC7261888, “Crystal Structure of Geranylgeranyl Pyrophosphate Synthase (CrtE) Involved in Cyanobacterial Terpenoid Biosynthesis” (Frontiers in Plant Science, 2020).

This data set concerns the molecule itself. The data set can be described thus: SEC; HiLoad 16/60 Superdex 200 pg, 25 mM Tris-HCl pH 7.5, 500 mM NaCl, 4 °C, 1 mL/min; mass estimated from the elution volume.

By stoichiometry N is commonly meant the number of molecules, sites or subunits per partner or assembly.

B1: Synechococcus sp. PCC 7002 CrtE (geranylgeranyl pyrophosphate synthase) (enzyme, UniProt B1XJV9 1-302, looked up)
chain: MVVADAHTQGFSLAQYLQEQKTIVETALDQSLVITEPVTIYEAMRYSLLAGGKRLRPILCLAACEMLGGTAAMAMNTACALEMIHTMSLIHDDLPAMDNDDLRRGKPTNHKVYGEDIAILAGDALLSYAFEYVARTPDVPAERLLQVIVRLGQAVGAEGLVGGQVVDLESEGKTDVAVETLNFIHTHKTGALLEVCVTAGAILAGAKPEEVQLLSRYAQNIGLAFQIVDDILDITATAEELGKTAGKDLEAQKVTYPSLWGIEKSQAEAQKLVAEAIASLEPYGEKANPLKALAEYIVNRKN
notes: CrtE (type II geranylgeranyl pyrophosphate synthase) of Synechococcus sp; PCC 7002, gene crtE, locus SYNPCC7002_A1085; amplified from genomic DNA with primers from the ATG to the stop codon; predicted 302 residues; Expressed from pHUE as an N-terminal His-tagged ubiquitin fusion and freed by deubiquitinase; also called Syn7002 CrtE; Syn7002 GGPPS; source: E. coli BL21(DE3), purified (Ni-NTA, …)
On to B1, for which the “stoichiometry N” value is 2.
